From US20180071366A1
Numbered stars: 1 amine (or outer) side, 2 acyl side, 3 side chain; on linkers, the order of the positions; unused ones are H or OH. Bridge positions count the residues as written; N and C are the ends. Square brackets hold non-standard residues; d marks the D form. * marks the point of attachment. C20 diacid = O=C(O)CCCCCCCCCCCCCCCCCCC(=O)*; γGlu = O=C(O)[C@H](CCC(=O)[*:2])N[*:1]; Hyp = O=C(O)[C@@H]1C[C@@H](O)CN1; NMeI = CC[C@H](C)[C@H](NC)C(=O)O; Aad = N[C@@H](CCCC(=O)O)C(=O)O; Orn = NCCC[C@H](N)C(=O)O; Sar = CNCC(=O)O

Legend:
[1] = biological target: recombinant human amylin 3 receptor (hAMYR3) (human), P30988; experiment: cell-based or functional assay
[2] = biological target: recombinant human calcitonin receptor (hCT-R) (human), P30988; experiment: cell-based or functional assay
Sequence of recombinant human calcitonin receptor (hCT-R) (human), P30988 (P30988 25-474): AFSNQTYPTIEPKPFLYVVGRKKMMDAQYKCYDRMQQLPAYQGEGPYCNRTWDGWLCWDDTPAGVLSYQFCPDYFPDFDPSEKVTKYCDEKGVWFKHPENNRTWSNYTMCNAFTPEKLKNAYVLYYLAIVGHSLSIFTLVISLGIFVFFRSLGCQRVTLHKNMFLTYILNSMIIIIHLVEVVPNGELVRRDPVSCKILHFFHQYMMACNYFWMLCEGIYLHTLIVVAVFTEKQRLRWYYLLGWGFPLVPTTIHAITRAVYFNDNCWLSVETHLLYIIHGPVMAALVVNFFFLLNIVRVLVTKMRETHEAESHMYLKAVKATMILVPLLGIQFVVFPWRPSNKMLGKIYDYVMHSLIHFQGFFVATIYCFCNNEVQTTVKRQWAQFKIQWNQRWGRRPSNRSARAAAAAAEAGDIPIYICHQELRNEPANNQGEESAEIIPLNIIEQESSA

Sequence of recombinant human amylin 3 receptor (hAMYR3) (human), P30988 (P30988 25-474, chain 1 of 2): as the sequence (P30988 25-474) above
Sequence of recombinant human amylin 3 receptor (hAMYR3) (human), P30988 (O60896 24-148, chain 2 of 2, further chain): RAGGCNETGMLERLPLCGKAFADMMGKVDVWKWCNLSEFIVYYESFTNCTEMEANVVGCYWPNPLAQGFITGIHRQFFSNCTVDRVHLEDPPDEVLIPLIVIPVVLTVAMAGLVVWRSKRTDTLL

| Binder | hAMYR3 EC50 [nM] (cAMP formation, 1321N1 cells expressing hAMYR3) [1] | hCT-R EC50 [nM] (cAMP formation, 1321N1 cells expressing hCT-R) [2] |
| --- | --- | --- |
| {C20 diacid-γGlu}-RDGTATKATERLA[Aad]FLQRANF[Sar]A[NMeI]LSSTEVGSNT[Hyp]-NH2 (lactam 2-7; SMILES CC[C@H](C)[C@@H](C(=O)N[C@@H](CC(C)C)C(=O)N[C@@H](CO)C(=O)N[C@@H](CO)C(=O)N[C@H](C(=O)N[C@@H](CCC(=O)O)C(=O)N[C@H](C(=O)NCC(=O)N[C@@H](CO)C(=O)N[C@@H](CC(N)=O)C(=O)N[C@H](C(=O)N1C[C@H](O)C[C@H]1C(N)=O)[C@@H](C)O)C(C)C)[C@@H](C)O)N(C)C(=O)[C@H](C)NC(=O)CN(C)C(=O)[C@H](Cc1ccccc1)NC(=O)[C@H](CC(N)=O)NC(=O)[C@H](C)NC(=O)[C@H](CCCNC(=N)N)NC(=O)[C@H](CCC(N)=O)NC(=O)[C@H](CC(C)C)NC(=O)[C@H](Cc1ccccc1)NC(=O)[C@H](CCCC(=O)O)NC(=O)[C@H](C)NC(=O)[C@H](CC(C)C)NC(=O)[C@H](CCCNC(=N)N)NC(=O)[C@H](CCC(=O)O)NC(=O)[C@@H](NC(=O)[C@H](C)NC(=O)[C@@H]1CCCCNC(=O)C[C@H](NC(=O)[C@H](CCCNC(=N)N)NC(=O)CC[C@H](NC(=O)CCCCCCCCCCCCCCCCCCC(=O)O)C(=O)O)C(=O)NCC(=O)N[C@@H]([C@@H](C)O)C(=O)N[C@@H](C)C(=O)N[C@@H]([C@@H](C)O)C(=O)N1)[C@@H](C)O) [Compound 33] | 0.009 | 0.019 |
| {C20 diacid-γGlu-γGlu}-RDGTAT[Orn]ATERLAHFLQRSSF[Sar]A[NMeI]LSSTEVGSNT[Hyp]-NH2 (lactam 2-7; SMILES CC[C@H](C)[C@@H](C(=O)N[C@@H](CC(C)C)C(=O)N[C@@H](CO)C(=O)N[C@@H](CO)C(=O)N[C@H](C(=O)N[C@@H](CCC(=O)O)C(=O)N[C@H](C(=O)NCC(=O)N[C@@H](CO)C(=O)N[C@@H](CC(N)=O)C(=O)N[C@H](C(=O)N1C[C@H](O)C[C@H]1C(N)=O)[C@@H](C)O)C(C)C)[C@@H](C)O)N(C)C(=O)[C@H](C)NC(=O)CN(C)C(=O)[C@H](Cc1ccccc1)NC(=O)[C@H](CO)NC(=O)[C@H](CO)NC(=O)[C@H](CCCNC(=N)N)NC(=O)[C@H](CCC(N)=O)NC(=O)[C@H](CC(C)C)NC(=O)[C@H](Cc1ccccc1)NC(=O)[C@H](Cc1c[nH]cn1)NC(=O)[C@H](C)NC(=O)[C@H](CC(C)C)NC(=O)[C@H](CCCNC(=N)N)NC(=O)[C@H](CCC(=O)O)NC(=O)[C@@H](NC(=O)[C@H](C)NC(=O)[C@@H]1CCCNC(=O)C[C@H](NC(=O)[C@H](CCCNC(=N)N)NC(=O)CC[C@H](NC(=O)CC[C@H](NC(=O)CCCCCCCCCCCCCCCCCCC(=O)O)C(=O)O)C(=O)O)C(=O)NCC(=O)N[C@@H]([C@@H](C)O)C(=O)N[C@@H](C)C(=O)N[C@@H]([C@@H](C)O)C(=O)N1)[C@@H](C)O) [Compound 4] | 0.092 | 0.16 |
| {C20 diacid-γGlu}-RDGTATKATERLA[Aad]FLQRAAF[Sar]A[NMeI]LSSTEVGSNT[Hyp]-NH2 (lactam 2-7; SMILES CC[C@H](C)[C@@H](C(=O)N[C@@H](CC(C)C)C(=O)N[C@@H](CO)C(=O)N[C@@H](CO)C(=O)N[C@H](C(=O)N[C@@H](CCC(=O)O)C(=O)N[C@H](C(=O)NCC(=O)N[C@@H](CO)C(=O)N[C@@H](CC(N)=O)C(=O)N[C@H](C(=O)N1C[C@H](O)C[C@H]1C(N)=O)[C@@H](C)O)C(C)C)[C@@H](C)O)N(C)C(=O)[C@H](C)NC(=O)CN(C)C(=O)[C@H](Cc1ccccc1)NC(=O)[C@H](C)NC(=O)[C@H](C)NC(=O)[C@H](CCCNC(=N)N)NC(=O)[C@H](CCC(N)=O)NC(=O)[C@H](CC(C)C)NC(=O)[C@H](Cc1ccccc1)NC(=O)[C@H](CCCC(=O)O)NC(=O)[C@H](C)NC(=O)[C@H](CC(C)C)NC(=O)[C@H](CCCNC(=N)N)NC(=O)[C@H](CCC(=O)O)NC(=O)[C@@H](NC(=O)[C@H](C)NC(=O)[C@@H]1CCCCNC(=O)C[C@H](NC(=O)[C@H](CCCNC(=N)N)NC(=O)CC[C@H](NC(=O)CCCCCCCCCCCCCCCCCCC(=O)O)C(=O)O)C(=O)NCC(=O)N[C@@H]([C@@H](C)O)C(=O)N[C@@H](C)C(=O)N[C@@H]([C@@H](C)O)C(=O)N1)[C@@H](C)O) [Compound 31] | 0.066 | 0.227 |
| {C20 diacid-γGlu}-EDGTATKATERLA[Aad]FLQRSSF[Sar]A[NMeI]PSSTEVGSNT[Hyp]-NH2 (lactam 2-7; SMILES CC[C@H](C)[C@@H](C(=O)N1CCC[C@H]1C(=O)N[C@@H](CO)C(=O)N[C@@H](CO)C(=O)N[C@H](C(=O)N[C@@H](CCC(=O)O)C(=O)N[C@H](C(=O)NCC(=O)N[C@@H](CO)C(=O)N[C@@H](CC(N)=O)C(=O)N[C@H](C(=O)N1C[C@H](O)C[C@H]1C(N)=O)[C@@H](C)O)C(C)C)[C@@H](C)O)N(C)C(=O)[C@H](C)NC(=O)CN(C)C(=O)[C@H](Cc1ccccc1)NC(=O)[C@H](CO)NC(=O)[C@H](CO)NC(=O)[C@H](CCCNC(=N)N)NC(=O)[C@H](CCC(N)=O)NC(=O)[C@H](CC(C)C)NC(=O)[C@H](Cc1ccccc1)NC(=O)[C@H](CCCC(=O)O)NC(=O)[C@H](C)NC(=O)[C@H](CC(C)C)NC(=O)[C@H](CCCNC(=N)N)NC(=O)[C@H](CCC(=O)O)NC(=O)[C@@H](NC(=O)[C@H](C)NC(=O)[C@@H]1CCCCNC(=O)C[C@H](NC(=O)[C@H](CCC(=O)O)NC(=O)CC[C@H](NC(=O)CCCCCCCCCCCCCCCCCCC(=O)O)C(=O)O)C(=O)NCC(=O)N[C@@H]([C@@H](C)O)C(=O)N[C@@H](C)C(=O)N[C@@H]([C@@H](C)O)C(=O)N1)[C@@H](C)O) [Compound 30] | 0.122 | 0.232 |
| {C20 diacid-γGlu}-RDGTATKATERLA[Aad]FLQRSSF[Sar]A[NMeI]LSSTEVGSNT[Hyp]-NH2 (lactam 2-7) [Compound 35] | 0.028 | 0.066 |
| {C20 diacid-γGlu}-RDGTATKATERLA[Aad]FLQRSSF[Sar]A[NMeI]PSSTEVGSNT[Hyp]-NH2 (lactam 2-7; SMILES CC[C@H](C)[C@@H](C(=O)N1CCC[C@H]1C(=O)N[C@@H](CO)C(=O)N[C@@H](CO)C(=O)N[C@H](C(=O)N[C@@H](CCC(=O)O)C(=O)N[C@H](C(=O)NCC(=O)N[C@@H](CO)C(=O)N[C@@H](CC(N)=O)C(=O)N[C@H](C(=O)N1C[C@H](O)C[C@H]1C(N)=O)[C@@H](C)O)C(C)C)[C@@H](C)O)N(C)C(=O)[C@H](C)NC(=O)CN(C)C(=O)[C@H](Cc1ccccc1)NC(=O)[C@H](CO)NC(=O)[C@H](CO)NC(=O)[C@H](CCCNC(=N)N)NC(=O)[C@H](CCC(N)=O)NC(=O)[C@H](CC(C)C)NC(=O)[C@H](Cc1ccccc1)NC(=O)[C@H](CCCC(=O)O)NC(=O)[C@H](C)NC(=O)[C@H](CC(C)C)NC(=O)[C@H](CCCNC(=N)N)NC(=O)[C@H](CCC(=O)O)NC(=O)[C@@H](NC(=O)[C@H](C)NC(=O)[C@@H]1CCCCNC(=O)C[C@H](NC(=O)[C@H](CCCNC(=N)N)NC(=O)CC[C@H](NC(=O)CCCCCCCCCCCCCCCCCCC(=O)O)C(=O)O)C(=O)NCC(=O)N[C@@H]([C@@H](C)O)C(=O)N[C@@H](C)C(=O)N[C@@H]([C@@H](C)O)C(=O)N1)[C@@H](C)O) [Compound 34] | 0.063 | 0.206 |
| {C20 diacid-γGlu}-RDGTATKATERLA[Aad]FLQRGGF[Sar]A[NMeI]LSSTEVGSNT[Hyp]-NH2 (lactam 2-7; SMILES CC[C@H](C)[C@@H](C(=O)N[C@@H](CC(C)C)C(=O)N[C@@H](CO)C(=O)N[C@@H](CO)C(=O)N[C@H](C(=O)N[C@@H](CCC(=O)O)C(=O)N[C@H](C(=O)NCC(=O)N[C@@H](CO)C(=O)N[C@@H](CC(N)=O)C(=O)N[C@H](C(=O)N1C[C@H](O)C[C@H]1C(N)=O)[C@@H](C)O)C(C)C)[C@@H](C)O)N(C)C(=O)[C@H](C)NC(=O)CN(C)C(=O)[C@H](Cc1ccccc1)NC(=O)CNC(=O)CNC(=O)[C@H](CCCNC(=N)N)NC(=O)[C@H](CCC(N)=O)NC(=O)[C@H](CC(C)C)NC(=O)[C@H](Cc1ccccc1)NC(=O)[C@H](CCCC(=O)O)NC(=O)[C@H](C)NC(=O)[C@H](CC(C)C)NC(=O)[C@H](CCCNC(=N)N)NC(=O)[C@H](CCC(=O)O)NC(=O)[C@@H](NC(=O)[C@H](C)NC(=O)[C@@H]1CCCCNC(=O)C[C@H](NC(=O)[C@H](CCCNC(=N)N)NC(=O)CC[C@H](NC(=O)CCCCCCCCCCCCCCCCCCC(=O)O)C(=O)O)C(=O)NCC(=O)N[C@@H]([C@@H](C)O)C(=O)N[C@@H](C)C(=O)N[C@@H]([C@@H](C)O)C(=O)N1)[C@@H](C)O) [Compound 32] | 0.005 | 0.006 |
| {C20 diacid-γGlu}-RDPTATKATERLA[Aad]FLQRSSF[Sar]A[NMeI]LSSTEVGSNT[Hyp]-NH2 (lactam 2-7; SMILES CC[C@H](C)[C@@H](C(=O)N[C@@H](CC(C)C)C(=O)N[C@@H](CO)C(=O)N[C@@H](CO)C(=O)N[C@H](C(=O)N[C@@H](CCC(=O)O)C(=O)N[C@H](C(=O)NCC(=O)N[C@@H](CO)C(=O)N[C@@H](CC(N)=O)C(=O)N[C@H](C(=O)N1C[C@H](O)C[C@H]1C(N)=O)[C@@H](C)O)C(C)C)[C@@H](C)O)N(C)C(=O)[C@H](C)NC(=O)CN(C)C(=O)[C@H](Cc1ccccc1)NC(=O)[C@H](CO)NC(=O)[C@H](CO)NC(=O)[C@H](CCCNC(=N)N)NC(=O)[C@H](CCC(N)=O)NC(=O)[C@H](CC(C)C)NC(=O)[C@H](Cc1ccccc1)NC(=O)[C@H](CCCC(=O)O)NC(=O)[C@H](C)NC(=O)[C@H](CC(C)C)NC(=O)[C@H](CCCNC(=N)N)NC(=O)[C@H](CCC(=O)O)NC(=O)[C@@H](NC(=O)[C@H](C)NC(=O)[C@@H]1CCCCNC(=O)C[C@H](NC(=O)[C@H](CCCNC(=N)N)NC(=O)CC[C@H](NC(=O)CCCCCCCCCCCCCCCCCCC(=O)O)C(=O)O)C(=O)N2CCC[C@H]2C(=O)N[C@@H]([C@@H](C)O)C(=O)N[C@@H](C)C(=O)N[C@@H]([C@@H](C)O)C(=O)N1)[C@@H](C)O) [Compound 29] | 0.312 | 1.07 |
